T1: Human IL22 (human, UniProt Q9GZX6 34-179)
T1 construct: IL22 of the Biacore and cell assays
T1 sequence: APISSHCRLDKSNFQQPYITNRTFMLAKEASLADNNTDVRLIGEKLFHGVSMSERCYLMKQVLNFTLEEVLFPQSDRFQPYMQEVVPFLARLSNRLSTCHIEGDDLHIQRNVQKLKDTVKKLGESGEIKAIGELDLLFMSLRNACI


target: T1, Human IL22; test: SPR (Biacore); Fab variant, human IL22

| Binder | Kd |
| --- | --- |
| 11041gL7 C91S gH8 D54E (Fab, V domains shown, V-regions only; also called 11041gL12gH15) VH: EVQLVESGGGLVQPGGSLRLSCAVSGFSLSSYAMIWVRQAPGKGLEWIGIIDIEGSTYYASWAKGRFTISRDSSKNTLYLQMNSLRAEDTAVYYCARDRFVGVDIFDPWGQGTLVTVSS VL: AIQLTQSPSSLSASVGDRVTITCQASEDIYTNLAWYQQKPGKAPKLLIYWASTLASGVPSRFSGSGSGTDFTLTISSLQPEDFATYYCQASVYGNSADSRYTFGGGTKVEIK | 0.115 nM |
| 11041gL6 C91S gH5 D54E (Fab, V domains shown, also called 11041gL11gH14) VH: EVQLVESGGGLVQPGGSLRLSCAVSGFSLSSYAMIWVRQAPGKGLEWIGIIDIEGSTYYASWAKGRFTISRDNSKNTVYLQMNSLRAEDTAVYYCARDRFVGVDIFDPWGQGTLVTVSS VL: AVQLTQSPSSLSASVGDRVTITCQASEDIYTNLAWYQQKPGKAPKLLIYWASTLASGVPSRFSGSGSGTDFTLTISSLQPEDFATYYCQASVYGNSADSRYTFGGGTKVEIK | 0.0161 nM |
| 11041gL6 C91S S96A gH8 D54E (Fab, V domains shown, also called 11041gL13gH15) VH: EVQLVESGGGLVQPGGSLRLSCAVSGFSLSSYAMIWVRQAPGKGLEWIGIIDIEGSTYYASWAKGRFTISRDSSKNTLYLQMNSLRAEDTAVYYCARDRFVGVDIFDPWGQGTLVTVSS VL: AVQLTQSPSSLSASVGDRVTITCQASEDIYTNLAWYQQKPGKAPKLLIYWASTLASGVPSRFSGSGSGTDFTLTISSLQPEDFATYYCQASVYGNAADSRYTFGGGTKVEIKR | 0.0849 nM |
| 11041gL7 C91S gH12 D54E (Fab, V domains shown, V-regions only; also called 11041gL12gH18) VH: EVQLVESGGGLVQPGGSLRLSCAVSGFSLSSYAMIWVRQAPGKGLEWISIIDIEGSTYYASWAKGRFTISRDNSKNTLYLQMNSLRAEDTAVYYCARDRFVGVDIFDPWGQGTLVTVSS VL: AIQLTQSPSSLSASVGDRVTITCQASEDIYTNLAWYQQKPGKAPKLLIYWASTLASGVPSRFSGSGSGTDFTLTISSLQPEDFATYYCQASVYGNSADSRYTFGGGTKVEIK | 0.0739 nM |
| 11041gL6 C91S S96A gH12 D54E (Fab, V domains shown, also called 11041gL13gH18) VH: EVQLVESGGGLVQPGGSLRLSCAVSGFSLSSYAMIWVRQAPGKGLEWISIIDIEGSTYYASWAKGRFTISRDNSKNTLYLQMNSLRAEDTAVYYCARDRFVGVDIFDPWGQGTLVTVSS VL: AVQLTQSPSSLSASVGDRVTITCQASEDIYTNLAWYQQKPGKAPKLLIYWASTLASGVPSRFSGSGSGTDFTLTISSLQPEDFATYYCQASVYGNAADSRYTFGGGTKVEIKR | 0.0517 nM |
| 11041gL6 C91S S96A gH11 D54E (Fab, V domains shown, also called 11041gL13gH17) VH: EVQLVESGGGLVQPGGSLRLSCAVSGFSLSSYAMIWVRQAPGKGLEWVGIIDIEGSTYYASWAKGRFTISRDNSKNTLYLQMNSLRAEDTAVYYCARDRFVGVDIFDPWGQGTLVTVSS VL: AVQLTQSPSSLSASVGDRVTITCQASEDIYTNLAWYQQKPGKAPKLLIYWASTLASGVPSRFSGSGSGTDFTLTISSLQPEDFATYYCQASVYGNAADSRYTFGGGTKVEIKR | 0.0524 nM |
| 11041gL7 C91S S96A gH5 D54E (Fab, V domains shown, also called 11041gL14gH14) VH: EVQLVESGGGLVQPGGSLRLSCAVSGFSLSSYAMIWVRQAPGKGLEWIGIIDIEGSTYYASWAKGRFTISRDNSKNTVYLQMNSLRAEDTAVYYCARDRFVGVDIFDPWGQGTLVTVSS VL: AIQLTQSPSSLSASVGDRVTITCQASEDIYTNLAWYQQKPGKAPKLLIYWASTLASGVPSRFSGSGSGTDFTLTISSLQPEDFATYYCQASVYGNAADSRYTFGGGTKVEIK | 0.0266 nM |
| 11041gL7 C91S gH5 D54E (Fab, V domains shown, also called 11041gL12gH14) VH: EVQLVESGGGLVQPGGSLRLSCAVSGFSLSSYAMIWVRQAPGKGLEWIGIIDIEGSTYYASWAKGRFTISRDNSKNTVYLQMNSLRAEDTAVYYCARDRFVGVDIFDPWGQGTLVTVSS VL: AIQLTQSPSSLSASVGDRVTITCQASEDIYTNLAWYQQKPGKAPKLLIYWASTLASGVPSRFSGSGSGTDFTLTISSLQPEDFATYYCQASVYGNSADSRYTFGGGTKVEIK | 0.0293 nM |
| 11041gL1 C91S S96A gH5 D54E (Fab, V domains shown, heavy chain is the gH5 D54E (gH14) Fab heavy chain; also called 11041gL10gH14) VH: EVQLVESGGGLVQPGGSLRLSCAVSGFSLSSYAMIWVRQAPGKGLEWIGIIDIEGSTYYASWAKGRFTISRDNSKNTVYLQMNSLRAEDTAVYYCARDRFVGVDIFDPWGQGTLVTVSS VL: AVVLTQSPSSLSASVGDRVTITCQASEDIYTNLAWYQQKPGKAPKLLIYWASTLASGVPSRFSGSGSGTDFTLTISSLQPEDFATYYCQASVYGNAADSRYTFGGGTKVEIK | 0.0233 nM |
| 11041gL7gH1 (Fab, V domains shown, V-regions only) VH: EVQLVESGGGLVQPGGSLRLSCAVSGFSLSSYAMIWVRQAPGKGLEWIGIIDIDGSTYYASWAKGRFTISRDSSKNTVYLQMNSLRAEDTAVYYCARDRFVGVDIFDPWGQGTLVTVSS VL: AIQLTQSPSSLSASVGDRVTITCQASEDIYTNLAWYQQKPGKAPKLLIYWASTLASGVPSRFSGSGSGTDFTLTISSLQPEDFATYYCQACVYGNSADSRYTFGGGTKVEIK | 0.446 nM |
| 11041gL7 C91S gH11 D54E (Fab, V domains shown, V-regions only; also called 11041gL12gH17) VH: EVQLVESGGGLVQPGGSLRLSCAVSGFSLSSYAMIWVRQAPGKGLEWVGIIDIEGSTYYASWAKGRFTISRDNSKNTLYLQMNSLRAEDTAVYYCARDRFVGVDIFDPWGQGTLVTVSS VL: AIQLTQSPSSLSASVGDRVTITCQASEDIYTNLAWYQQKPGKAPKLLIYWASTLASGVPSRFSGSGSGTDFTLTISSLQPEDFATYYCQASVYGNSADSRYTFGGGTKVEIK | 0.0666 nM |

target: T1, Human IL22; test: SPR (Biacore); Fab variant, human IL22; remark: another data set of the same source

| Binder | Kd |
| --- | --- |
| 11070gL1gH13 (Fab, V domains shown, V-regions only; also called 11070gL1gH1 S61T) VH: EVQLQESGPGLVKPSQTLSLTCTVSGFSLTSYSVHWVRQHSGKGLEWMGRMWSDGDTSYNTAFTSRLTISRDTSKSQVSLKLSSVTAADTAVYYCARSLDFYYDTTLAFWGQGTTVTVSS VL: DIVMTQSPSSVSASVGDRVTITCKASKTISKYLAWYQQKPGKANKLLIYSGSTLQSGTPSRFSGSGSSTDFTLTISSLQPEDFATYYCQQHNEYPLTFGQGTKLEIK | 0.0317 nM |
| 11070gL7gH16 Fab (Fab, V domains shown, also called VR11070) VH: EVQLQESGPGLVKPSQTLSLTCTVSGFSLTSYSVHWVRQHPGKGLEWIGRMWSDGDTSYNTAFTSRLTISRDTSKNQVSLKLSSVTAADTAVYYCARSLDFYYDTTLAFWGQGTTVTVSS VL: DIQMTQSPSSVSASVGDRVTITCKASKTISKYLAWYQQKPGKANKLLIYSGSTLQSGVPSRFSGSGSGTDFTLTISSLQPEDFATYYCQQHNEYPLTFGQGTKLEIKR | 0.0257 nM |
| 11070gL1gH1 (Fab, V domains shown, V-regions only) VH: EVQLQESGPGLVKPSQTLSLTCTVSGFSLTSYSVHWVRQHSGKGLEWMGRMWSDGDTSYNSAFTSRLTISRDTSKSQVSLKLSSVTAADTAVYYCARSLDFYYDTTLAFWGQGTTVTVSS VL: DIVMTQSPSSVSASVGDRVTITCKASKTISKYLAWYQQKPGKANKLLIYSGSTLQSGTPSRFSGSGSSTDFTLTISSLQPEDFATYYCQQHNEYPLTFGQGTKLEIK | 0.0368 nM |

Source: US20240067758A1 (UCB, published 2024)
